# Article doi:10.1101/2024.11.20.624454 (bioRxiv, 2024)
# T1: Mus musculus SPO11, MBP-tagged (Mus musculus, UniProt Q9WTK8 1-396)
# T1 sequence (looked up): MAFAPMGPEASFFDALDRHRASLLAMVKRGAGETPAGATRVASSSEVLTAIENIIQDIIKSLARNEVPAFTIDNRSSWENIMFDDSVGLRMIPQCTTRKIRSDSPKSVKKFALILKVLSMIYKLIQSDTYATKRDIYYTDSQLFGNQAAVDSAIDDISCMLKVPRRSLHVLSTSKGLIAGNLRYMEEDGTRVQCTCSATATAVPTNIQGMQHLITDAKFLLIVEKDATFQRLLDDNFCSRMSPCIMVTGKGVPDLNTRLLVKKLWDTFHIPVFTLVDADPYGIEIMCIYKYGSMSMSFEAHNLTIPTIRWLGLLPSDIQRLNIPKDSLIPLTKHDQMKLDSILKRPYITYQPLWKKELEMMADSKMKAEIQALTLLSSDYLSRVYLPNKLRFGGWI
# Target: T1, Mus musculus SPO11, MBP-tagged
# Test: SEC-MALS
binder,measurement,value
"Mus musculus TOP6BL, HisFlag-tagged (natural protein, UniProt J3QMY9 1-579, looked up) MERTALAVCEILRYLIIHWKCEAGTAKGTLLDGQLVISIEALRSKHLPDSLHCIITIASTRSVYGGLNFKKFLQEIQPALPRLSAKLALASEEGGRSQDASGIAPCQVTFEVDENSQSLMTDCLVIKHFLRKIIIVHHKLKFSFSVAVNGTLSAETFGAENEPTLRLDNGVTLVVGFQRYVSKPKLNWSEAHCSRIHPVLGHPAPLFIPDAKADTGLLGELTLTPAAALCPSPKGFSSQLCRISSVSIFLYGPLGLPLLSSDQDQPSTAVFRDTSYFIDWKKYNLFMVPNLDLNLDTQSVLPDVNYKAESPEGNQSQNMNAQGPALLLFLFVDFQSDVPVQQAKIWGLHTLLTAHLSAILSESRSTVQQSIQSAVDQVWQLYHHDAKTQQRLQASLSVAVNSIMSVLTGSTRSSFRKTCLQALEAADTQEFGVKLHRIFYDITQHQFLKHCSCDTEQHLTPEKNISAQNTKDQHKNIAQEFPEESIGQAENKRPKRGSPNHGREESRVLGSARDRSPPKSATRDRELTEVSLTARGSQTQAAHGRAQAAEAASPAGGLEDLWLQEVSNLSEWLNPGHRS",stoichiometry N,1
